This assay has as its system intracellular proteome of ENR+CD and ENR organoids. Kind of assay: LC-MS/MS TMT proteomics of ENR+CD versus ENR organoids. The assay is classed as cell-based, C57BL/6 mice. As to conditions: for Average logFC: ENR+CD versus ENR organoids, sample pairs in aggregate (n=4, 2 technical replicates from two biological donors); for M1-1 Log2 Median Normalized / M1-2 Log2 Median Normalized / M2-1 Log2 Median Normalized / M2-2 Log2 Median Normalized: protein abundance ratio ENR+CD versus ENR organoids, LC-MS/MS TMT proteomics; for M1-1 Log2 Median Normalized: sample pair M1-1; for M1-2 Log2 Median Normalized: sample pair M1-2; for M2-1 Log2 Median Normalized: sample pair M2-1; for M2-2 Log2 Median Normalized: sample pair M2-2; for change: up = enriched in ENR+CD, down = enriched in ENR, FDR<0.05 and log fold change cut-off.

B1: Q8C196 (protein, UniProt Q8C196 1-1500, looked up)
chain: MTRILTACKVVKTLKSGFGFANVTTKRQWDFSRPGIRLLSVKAKTAHIVLEDGTKMKGYSFGHPSSVAGEVVFNTGLGGYPEALTDPAYKGQILTMANPIIGNGGAPDTTARDELGLNKYMESDGIKVAGLLVLNYSNDYNHWLATKSLGQWLQEEKVPAIYGVDTRMLTKIIRDKGTMLGKIEFEGQSVDFVDPNKQNLIAEVSTKDVKVFGKGNPTKVVAVDCGIKNNVIRLLVKRGAEVHLVPWNHDFTQMEYDGLLIAGGPGNPALAQPLIQNVKKILESDRKEPLFGISTGNIITGLAAGAKSYKMSMANRGQNQPVLNITNRQAFITAQNHGYALDNTLPAGWKPLFVNVNDQTNEGIMHESKPFFAVQFHPEVSPGPTDTEYLFDSFFSLIKKGKGTTITSVLPKPALVASRVEVSKVLILGSGGLSIGQAGEFDYSGSQAVKAMKEENVKTVLMNPNIASVQTNEVGLKQADAVYFLPITPQFVTEVIKAERPDGLILGMGGQTALNCGVELFKRGVLKEYGVKVLGTSVESIMATEDRQLFSDKLNEINEKIAPSFAVESMEDALKAADTIGYPVMIRSAYALGGLGSGICPNKETLIDLGTKAFAMTNQILVERSVTGWKEIEYEVVRDADDNCVTVCNMENVDAMGVHTGDSVVVAPAQTLSNAEFQMLRRTSVNVVRHLGIVGECNIQFALHPTSMEYCIIEVNARLSRSSALASKATGYPLAFIAAKIALGIPLPEIKNVVSGKTSACFEPSLDYMVTKIPRWDLDRFHGTSSRIGSSMKSVGEVMAIGRTFEESFQKALRMCHPSVDGFTPRLPMNKEWPANLDLKKELSEPSSTRIYAIAKALENNMSLDEIVRLTSIDKWFLYKMRDILNMDKTLKGLNSDSVTEETLRKAKEIGFSDKQISKCLGLTEAQTRELRLKKNIHPWVKQIDTLAAEYPSVTNYLYVTYNGQEHDIKFDEHGIMVLGCGPYHIGSSVEFDWCAVSSIRTLRQLGKKTVVVNCNPETVSTDFDECDKLYFEELSLERILDIYHQEACNGCIISVGGQIPNNLAVPLYKNGVKIMGTSPLQIDRAEDRSIFSAVLDELKVAQAPWKAVNTLNEALEFANSVGYPCLLRPSYVLSGSAMNVVFSEDEMKRFLEEATRVSQEHPVVLTKFVEGAREVEMDAVGKEGRVISHAISEHVEDAGVHSGDATLMLPTQTISQGAIEKVKDATRKIAKAFAISGPFNVQFLVKGNDVLVIECNLRASRSFPFVSKTLGVDFIDVATKVMIGESIDEKRLPTLEQPIIPSDYVAIKAPMFSWPRLRDADPILRCEMASTGEVACFGEGIHTAFLKAMLSTGFKIPQKGILIGIQQSFRPRFLGVAEQLHNEGFKLFATEATSDWLNANNVPATPVAWPSQEGQNPSLSSIRKLIRDGSIDLVINLPNNNTKFVHDNYVIRRTAVDSGIALLTNFQVTKLFAEAVQKSRTVDSKSLFHYRQYSAGKAA
modifications: full-length
On to B1, for which the “Average logFC” value is recorded as −1.21, the “M1-1 Log2 Median Normalized” value is −1.302, the “M1-2 Log2 Median Normalized” value is given as −0.76 and the “M2-1 Log2 Median Normalized” value was −1.9525. Also, the “M2-2 Log2 Median Normalized” value is −0.825 and the change entry is recorded as “down”.

B2: Q8C159 (protein, UniProt Q8C159 1-568, looked up)
chain: MTEAEVGAEDLDTLLDELDYLPGHFHLEMQLNFEPRSPAQLRARDLKLQREGLRQELELVATPQLPAVRHLLGTFSFYLEELGDAREHFLEVARKDPGNLNAWANLAHVYGQLGQEEEEEASAGRLASLMGLEGDPEDAGDPRLRAARCLAEQGYAHGFDVGCASPEERAQVLEAGIALYDKALGYGQQIPIEEKRSWYFTMATLFIRLDGIFLEMGSEEQKRLPAFNRTLALLGEVLKSSDSRHQALAWCYVGMLLERKDTFSTTPMGVHEYGYSGTEPLDCFGKAIEIAKNQPPILNRLAKIFHFLGKQDMAVGTCNMVLAVLTDPELNWQAYCTRAKVRIRAYVHDLERAKVGLGGLPDRNHLACAKADLEEVVKVCPSLRTYLDISQVYYYMGVDAMRELLAVDEAALNQALVFLAKAGELELGDTLPELQLLRGKCLRVQGEDANAAACFKRAVELDDEGSSHTEGFGCLLEALLAQWSQAQLSDGEVGYEVDVWLRHAQGKYPAARLRQELQRVWRGHTEEVLGLARALVAQGRPALVRLLFETMEHEGEDAGGSGKSRVSS
modifications: full-length
Consider B2, for which the “Average logFC” value was −1.177, the “M1-1 Log2 Median Normalized” value is reported as −0.633, the “M1-2 Log2 Median Normalized” value is given as −1.446 and the “M2-1 Log2 Median Normalized” value is recorded as −1.1765. Further, the “M2-2 Log2 Median Normalized” value is reported as −1.271 and the change entry is “down”.

B3: Q8BW75 (protein, UniProt Q8BW75 1-520, looked up)
chain: MSNKSDVIVVGGGISGMAAAKLLHDCGLSVVVLEARDRVGGRTYTIRNKNVKYVDLGGSYVGPTQNRILRLAKELGLETYKVNEVERLIHFVKGKSYAFRGPFPPVWNPITYLDNNNLWRTMDEMGQEIPSDAPWKAPLAEEWDYMTMKELLDKICWTKSTKQIATLFVNLCVTAETHEVSALWFLWYVKQCGGTTRIISTTNGGQERKFIGGSGQVSERIKDILGDRVKLERPVIHIDQTGENVIVKTLNHEIYEAKYVISAIPPALGMKIHYSPPLPMLRNQLISRVPLGSVIKCMVYYKEPFWRKKDFCGTMVIEGEEAPIAYTLDDTKPDGTYAAIMGFILAHKARKLVRLTKEERLRKLCELYAKVLNSQEALQPVHYEEKNWCEEQYSGGCYTTYFPPGILTQYGRVLRQPVGKIFFAGTETASHWSGYMEGAVEAGERAAREILHAIGKIPEDEIWQPEPESLDVPARPITSTFLERHLPSVPGLLKLFGLTTILSATALGFLAHKRGLFVHF
modifications: full-length
As for B3, the “Average logFC” value is −1.176, the “M1-1 Log2 Median Normalized” value was −0.94, the “M1-2 Log2 Median Normalized” value is listed as −1.056 and the “M2-1 Log2 Median Normalized” value was −1.8625. Besides, the “M2-2 Log2 Median Normalized” value is −1.177 and the change entry is “down”.

B4: Q8BZ20 (protein, UniProt Q8BZ20 1-711, looked up)
chain: MAQAAVAVAEVTQLLCAAGGALELAELRRRLRTSLGTDALERLLRDCGRFVVASRAVVAVGAGREAAAAASERLVLAVSSLRLCRAHQGPKPGCTGLCAQLHLCKFLIYGNCKFLKTGKNCRNGHNLKTDHNLSVLRTHGVDHLTYTELCQLLLQNDPSLLPDICLHYNKGDGPFGSCSFQKQCIKLHICQYFLQGECKFGTSCKRSHEFTNSESLEQLERLGLSSDLVSRLLSTYRNAYDIKNKGSALSKVSPSPAGPQGSSERKDSSGPVSPGTPSQEESEQICLYHIRKSCSFQEKCHRVHFHLPYRWQFLDGGKWKDLDNMELIEEAYSNPSKDRIVYTESAAGFHFDNLDFNSMKFGNTLARRLSTASSVTKPPHFILTTDWIWYWMDEFGSWQEYGRQGSGHPVTTISSSDVERAYLAFCAPGADAQAATLKFQAGKHNYELHFKAFLQKNLVYGTIRKVCRRPKYVSPQDVQMKQSCNTKLHGPKSIPDYWDPAALPDLGFKKITLSSSSEEYQKVWNIFNRTLPFYFVQKIERIQNMGLWEVYQWQKCQMQKQNGGKEVDERQLFHGTSANFVDAICQQNFDWRVCGLHGTSYGKGSYFARDAAYSHHYSKSDTHSHMMFLARVLVGDFVRGSTSFVRPPAKEGQSNAFYDSCVNSMSDPTIFVVFEKHQVYPEYLIQYSTSSKPPASPSIFVALGNLFTSRQ
modifications: full-length
As for B4, the “Average logFC” value came to 1.138, the “M1-1 Log2 Median Normalized” value came to 1.138, the “M1-2 Log2 Median Normalized” value is reported as 0.69 and the “M2-1 Log2 Median Normalized” value is reported as 1.1465. The “M2-2 Log2 Median Normalized” value was found to be 1.295 and the change entry is given as “up”.

B5: Q8BPQ7 (protein, UniProt Q8BPQ7 1-1093, looked up)
chain: MASVPAEAETRQRLLRTVKKEVKQIMEEAVTRKFVHEDSSHIISFCAAVEACVLHGLRRRAAGFLRSNKIAALFMKVGKGFPPAEELSRKVQELEQLIESARNQIQGLQENVRKLPKLPNLSPLAIKHLWIRTALFGRVLDKIVHYLVENSSKYYEKEALLMDPVDGPILASLLVGPCALEYTKMKTADHFWTDPSADELVQRHRIHSSHLRQDSPTKRPALCIQKRHSSGSMDDRPSISARDYVESLHQDSRATLLYGKNNVLVQPRDDMEAVPGYLSLHQTADVMTLKWTPNQLMNGSVGDLDYEKSVYWDYAVTIRLEEIVYLHCHQQVDSGGTVVLVSQDGIQRPPFRFPKGGHLLQFLSCLENGLLPHGQLDPPLWSQRGKGKVFPKLRKRSPQGSSESTSSDKEDDEATDYVFRIIYPGTQSEFVPQDLMDVSMNNLPPLWQPSPRKSSCSSCSQSGSADGGSTNGCNHERAPLKLLCDNMKYQILSRAFYGWLAYCRHLSTVRTHLSALVNHMIVSPDLPCDAGQGLTASIWEKYIQDSTTYPEQELLRLIYYGGVQPEIRRAVWPFLLGHYQFGMTEMERKEVDEQIHACYAQTMSEWLGCEAIVRQRERESHAAALAKCSSGASLDSHLHRMLHRDSTISNESSQSCSSGRQNLRLQSDSSSSTQVFESVDEVEQTEAEGRSEEKHPKIPNGNPANGTCSPDSGHPSSHNFSSGLSEHSEPSLSTEDSVLDAQRSLPAVFRPGDSSVEDGQSSEATTSRDEAPREELAVQDSLESDLLANESLEEFMSIPGSLDVALPEKDGAVMDGWPGEADKPSRADSEDNLSEEPEMESLFPALASLAVTSSANNEASPVSSSGVTYSPELLDLYTVNLHRIEKDVQRCDRSYWYFTAANLEKLRNIMCSYIWQHIEIGYVQGMCDLLAPLLVILDDEALAFSCFTELMKRMNQNFPHGGAMDTHFANMRSLIQILDSELFELMHQNGDYTHFYFCYRWFLLDFKRELVYDDVFSVWETIWAAKHVSSAHYVLFIALALVEVYRDIILENNMDFTDIIKFFNEMAERHNAKQILQLARDLVHKVQILIENK
modifications: full-length
B5: the “Average logFC” value came to 1.34, the “M1-1 Log2 Median Normalized” value came to 1.5, the “M1-2 Log2 Median Normalized” value is reported as 0.707 and the “M2-1 Log2 Median Normalized” value is 1.4015. Moreover, the “M2-2 Log2 Median Normalized” value turned out to be 1.339 and the change entry is given as “up”.

These data come from patent US11994512B2, “Single-cell genomic methods to generate ex vivo cell systems that recapitulate in vivo biology with improved fidelity” (Massachusetts Institute of Technology, priority 2018, dated 2024).
